{
  "source": "paper doi:10.1101/2025.08.19.670962",
  "about": "“Structural basis for binding of RILPL1 to TMEM55B reveals a lysosomal platform for adaptor assembly through a conserved TBM motif” (bioRxiv, 2025)",
  "molecules": {"B1": {"name": "OCRL-PH domain: recombinant His-tagged PH domain, residues 1-129 of OCRL, ~16kDa (protein, UniProt Q01968 1-129, looked up, fragment)", "chain": "MEPPLPVGAQPLATVEGMEMKGPLREPCALTLAQRNGQYELIIQLHEKEQHVQDIIPINSHFRCVQEAEETLLIDIASNSGCKIRVQGDWIRERRFEIPDEEHCLKFLSAVLAAQKAQSQLLVPEQKDS", "modifications": "PH domain His tag", "notes": "recombinant His-tagged PH domain, residues 1-129 of OCRL, ~16kDa"}},
  "key": {"[1]": {"target": "T1, TMEM55B (residues 80-160) (Homo sapiens, UniProt Q86T03)", "T1 construct": "injected into a cell containing TMEM55B (residues 80-160); hexa-Histidine (N); made in house; host or cells: E. coli BL21(DE3)", "T1 sequence (Q86T03 73-153)": "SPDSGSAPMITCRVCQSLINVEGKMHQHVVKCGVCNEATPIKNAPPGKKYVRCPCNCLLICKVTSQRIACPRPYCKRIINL", "experiment": "Isothermal titration calorimetry of TBM peptides / OCRL PH domain with TMEM55B", "format": "binding", "settings": "ITC; titration shown in the figure panel (Figure 1G / Figure 6B); value printed in the picture, ±% = fitting error", "procedure": "Calorimetry experiments were performed using an ITC200 (Particular Sciences) as described in dx.doi.org/10.17504/protocols.io.j8nlkr7x6v5r/v1. Experiments were performed 3 or more times for each interacting pair. The TBM peptides were dialyzed together with TMEM55B80-160 (20 mM) Tris-HCl, 150mM NaCl, 5mM and 1mM DTT, pH 7.5). Protein concentrations were calculated based on their absorbance at 280nm using a ND-1000 NanoDrop spectrophotometer (Thermo Scientific), peptide concentration was determined by adding buffer to a known amount of lyophilized peptide factoring in their purity. The proteins were centrifuged at 13,100 x g for 10 minutes prior to the determination of protein concentration and ITC analyses. […]. We used Origin 7.0 with the ITC plugin for data processing, and assumed a single binding mode for data fitting."}, "[2]": {"system": "WT TMEM55B region 80-166", "experiment": "In vitro pulldown of untagged TMEM55B with His-tagged bait peptides", "format": "binding", "settings": "10 μM bait, 10 μM prey, Ni2+-agarose, 20 mM Tris pH 8.0, 300 mM NaCl, 20 mM imidazole, 15 minutes, SDS-PAGE, Coomassie, qualitative", "from_the_text": "Figure 5: In vitro pulldowns of TMEM55B with TBM peptides. (A) Domain organization of TMEM55B interactors depicting the sequence context of the TBM. Regions that are α-helical have been drawn as cylinders; α/βfolds are shown as rectangles; and unstructured segments are zigzag lines. (B) Cartoon depiction of the in vitro pulldown strategy using His-tagged peptides. […] As a control, the R151E variant of TMEM55B was used, which abolishes the interactions with RILPL1 (bottom panel). […] Protein/peptide concentrations were 10μM (see Methods) and visualization was enabled by Coomassie Brilliant Blue G250.\nGiven that the TBMs reside in flexible regions of the adaptor proteins (Figure 5A), peptides should be able to mimic their interactions with TMEM55B. Peptides corresponding to the potential TBMs were synthesized with an N-terminal hexahistidine tag to enable in vitro pulldowns of TMEM55B (80-166; Figure 5B). Slightly extended peptides beyond the minimal TBMs were generated to preclude any structural or conformational restrictions on the interaction with TMEM55B. The peptide TBM from RILPL1 was used as a positive control, and the mutant R151E™ of TMEM55B provided a negative control. Peptides run on conventional SDS-PAGE gels are generally not visible in this assay. […]"}},
  "data": [
    {"molecule": "B1", "values": [
      {"measurement": "Kd", "setting": "[1]", "result": 900, "unit": "nM"},
      {"measurement": "pulldown of untagged WT TMEM55B (80-166) by His-tagged bait", "setting": "[2]", "result": "interacts robustly"},
      {"measurement": "pulldown of untagged WT TMEM55B (80-166) by His-tagged bait", "setting": "[2]; listed as PH domain of OCRL1", "result": "successfully pulldown"}
    ]}
  ]
}
